Starred links: 1 amine or outer side, 2 acyl side, 3 side chain; linkers in the order of their positions; H or OH if unused. Positions of bridges follow the written chain, without caps; N, C: chain ends. Non-standard residues stand in square brackets, D forms with d. Primed or numbered codes have the meaning given here. No end group written: not given here. *: point of attachment. PyrS2″ = (S)-3-amino-1-((pent-4-en-1-yloxy)carbonyl)pyrrolidine-3-carboxylic acid (stapling residue), C=CCCCOC(=O)N1CC[C@@](N[*:1])(C(=O)[*:2])C1; B5(30) = 2-amino-2-(pent-4-en-1-yl)hept-6-enoic acid (2,2-bis(4-pentenyl)glycine, stitching residue), C=CCCCC(CCCC=C)(N[*:1])C(=O)[*:2]; B5(4) = 2,2-bis(4-pentenyl)glycine = 2-amino-2-(pent-4-en-1-yl)hept-6-enoic acid (stitching residue), C=CCCCC(CCCC=C)(N[*:1])C(=O)[*:2]; B5(5) = 2,2-bis(4-pentenyl)glycine, 2-amino-2-(pent-4-en-1-yl)hept-6-enoic acid (stitching residue), C=CCCCC(CCCC=C)(N[*:1])C(=O)[*:2]; TfeGA = (S)-2-amino-3-((carboxymethyl)(2,2,2-trifluoroethyl)amino)propanoic acid, O=C([C@H](CN(CC(=O)[*:3])CC(F)(F)F)N[*:1])[*:2]; PyrS2 = (S)-3-amino-1-((pent-4-en-1-yloxy)carbonyl)pyrrolidine-3-carboxylic acid, C=CCCCOC(=O)N1CC[C@@](N[*:1])(C(=O)[*:2])C1; B5(25) = 2-amino-2-(pent-4-en-1-yl)hept-6-enoic acid (stitching residue), C=CCCCC(CCCC=C)(N[*:1])C(=O)[*:2]; B5(3) = 2,2-bis(4-pentenyl)glycine (stitching residue), C=CCCCC(CCCC=C)(N[*:1])C(=O)[*:2]; B5 = 2-amino-2-(pent-4-en-1-yl)hept-6-enoic acid, C=CCCCC(CCCC=C)(N[*:1])C(=O)[*:2]; ProSAm3 = (allylsulfonyl)-D-proline, C=CCS(=O)(=O)N1CCC[C@@H]1C(=O)*; Phe(3-Ph) = N[C@@H](Cc1cccc(-c2ccccc2)c1)C(=O)O; Phe(3-COOH) = N[C@@H](Cc1cccc(C(=O)O)c1)C(=O)O; Phe(2-CF3) = N[C@@H](Cc1ccccc1C(F)(F)F)C(=O)O; Asp(3,3-Me2) = CC(C)(C(=O)O)[C@H](N)C(=O)O; Asp(3R-OH) = N[C@H](C(=O)O)[C@@H](O)C(=O)O; Phe(2-Cl) = N[C@@H](Cc1ccccc1Cl)C(=O)O; Phe(3-F) = N[C@@H](Cc1cccc(F)c1)C(=O)O; Phe(4-F) = N[C@@H](Cc1ccc(F)cc1)C(=O)O; Bta = N[C@@H](Cc1csc2ccccc12)C(=O)O; Lys(iPr) = CC(C)NCCCC[C@H](N)C(=O)O; αAllylPro = C=CC[C@@]1(C(=O)O)CCCN1; Azidoacetyl = [N-]=[N+]=NCC(=O)*; tBuAla = CC(C)(C)C[C@H](N)C(=O)O; 3Thi = N[C@@H](Cc1ccsc1)C(=O)O; hSer = N[C@@H](CCO)C(=O)O; 2F3MeF″ = Phe derivative; Ac3c = NC1(C(=O)O)CC1; ClAc = O=C(CCl)*
Legend:
[1] = biological target: full-length beta-Catenin (Uniprot ID P35222) (Homo sapiens (Human)) (UniProt P35222); experiment: fluorescence polarization competition vs 5FAM-TCF4(10-53) on full-length beta-catenin
[2] = biological target: full-length beta-Catenin (Uniprot ID P35222) (Homo sapiens (Human)) (UniProt P35222); experiment: fluorescence polarization competition; full-length beta-catenin, competitor 5FAM-TCF4(10-53)
[3] = biological target: full-length beta-Catenin (Uniprot ID P35222) (Homo sapiens (Human)) (UniProt P35222); experiment: fluorescence polarization competition; 10 nM full-length beta-catenin + 10 nM 5FAM-TCF4(10-53) probe
Target sequence in this assay (P35222 whole entry): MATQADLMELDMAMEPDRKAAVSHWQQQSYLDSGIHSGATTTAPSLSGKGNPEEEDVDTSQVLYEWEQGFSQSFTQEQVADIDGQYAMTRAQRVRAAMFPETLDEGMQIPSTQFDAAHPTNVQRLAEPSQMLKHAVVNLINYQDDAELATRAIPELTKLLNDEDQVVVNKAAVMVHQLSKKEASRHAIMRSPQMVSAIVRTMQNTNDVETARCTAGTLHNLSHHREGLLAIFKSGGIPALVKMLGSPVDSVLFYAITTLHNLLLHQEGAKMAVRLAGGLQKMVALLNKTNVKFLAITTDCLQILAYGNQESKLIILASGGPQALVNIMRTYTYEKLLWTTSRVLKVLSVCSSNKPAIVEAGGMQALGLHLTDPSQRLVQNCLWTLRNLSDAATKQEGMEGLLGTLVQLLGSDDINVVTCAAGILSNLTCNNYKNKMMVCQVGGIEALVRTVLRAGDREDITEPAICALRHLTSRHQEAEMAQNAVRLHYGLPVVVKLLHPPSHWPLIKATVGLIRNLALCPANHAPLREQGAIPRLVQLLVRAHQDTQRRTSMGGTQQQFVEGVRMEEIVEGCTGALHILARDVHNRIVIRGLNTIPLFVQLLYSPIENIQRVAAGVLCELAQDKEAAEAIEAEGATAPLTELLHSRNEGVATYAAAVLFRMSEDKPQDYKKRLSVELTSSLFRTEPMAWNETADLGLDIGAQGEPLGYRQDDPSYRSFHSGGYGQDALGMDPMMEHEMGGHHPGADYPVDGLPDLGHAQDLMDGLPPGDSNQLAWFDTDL

IC50 [1] [nM]	IC50 [2] [nM]	Binder	also measured
397		Ac-[αAllylPro]D[tBuAla][B5(30)]NTAAFR[PyrS2][3Thi][Bta]Q-NH2 (staple 1-4, 4-11; also: earlier-eluting HPLC isomer) [I-1882]	
	8410	Ac-[αAllylPro]D[tBuAla][B5(3)]D[Phe(3-COOH)]AAFL[PyrS2″][Phe(3-Ph)][2F3MeF″]Q-NH2 (staple 1-4, 4-11) [I-2256]	
1430		Ac-[αAllylPro]D[tBuAla][B5]D[TfeGA]AAFT[PyrS2][3Thi][Bta]S-NH2 (staple 1-4, 4-11; also: later-eluting staple isomer composition) [I-957]	EC50 [3]: 1430 nM
	175	Ac-[αAllylPro]D[tBuAla][B5(5)]D[TfeGA][Lys(iPr)]AFT[PyrS2″][3Thi][Bta]V-NH2 (staple 1-4, 4-11; also: -CH=CH- in each staple reduced to -CH2-CH2-) [I-1770]	
407		Ac-[αAllylPro]D[tBuAla][B5(25)]D[TfeGA]AAFF[PyrS2″][3Thi][Bta]S-NH2 (staple 1-4, 4-11; also: earlier-eluting HPLC staple isomer) [I-962]	EC50 [3]: 407 nM
	272	Ac-[αAllylPro][Asp(3R-OH)][tBuAla][B5(3)]D[Phe(3-COOH)]AAFL[PyrS2″][3Thi][Bta]A-NH2 (staple 1-4, 4-11) [I-2258]	
		Ac-[αAllylPro]D[tBuAla][B5(4)]DDAAFN[PyrS2″][3Thi][Bta]K(Azidoacetyl)-NH2 (staple 1-4, 4-11) [I-878]	EC50 [1]: 6 nM
	209	Ac-[αAllylPro]D[tBuAla][B5(4)][Asp(3,3-Me2)][TfeGA]AAFL[PyrS2″][3Thi][Bta]Q-NH2 (staple 1-4, 4-11) [I-1771]	
	419	Ac-[αAllylPro]D[tBuAla][B5(4)]D[TfeGA][Lys(iPr)]AFL[PyrS2″][3Thi][Bta]V-NH2 (staple 1-4, 4-11; also: -CH=CH- in each staple reduced to -CH2-CH2-) [I-1769]	
881		Ac-[αAllylPro]D[tBuAla][B5]D[TfeGA]AAF[hSer][PyrS2][3Thi][Bta]S-NH2 (staple 1-4, 4-11; also: later-eluting staple isomer composition) [I-959]	EC50 [3]: 881 nM
868		Ac-[αAllylPro]D[tBuAla][B5(30)]NTAAFN[PyrS2][3Thi][Bta]L-NH2 (staple 1-4, 4-11; also: earlier-eluting HPLC isomer) [I-1880]	
567		Ac-[αAllylPro]D[tBuAla][B5(30)]NTAAFN[PyrS2″][3Thi][Bta]V-NH2 (staple 1-4, 4-11; also: later-eluting HPLC isomer) [I-1879]	
743		Ac-[αAllylPro]D[tBuAla][B5(30)]NTAAFN[PyrS2][3Thi][Bta]L-NH2 (staple 1-4, 4-11; also: later-eluting HPLC isomer) [I-1881]	
1200		Ac-[αAllylPro]D[tBuAla][B5]D[TfeGA]AAFS[PyrS2][3Thi][Bta]S-NH2 (staple 1-4, 4-11; also: later-eluting staple isomer composition) [I-955]	EC50 [3]: 1200 nM
		Ac-[αAllylPro]DK(Azidoacetyl)[B5(4)]DDAAFN[PyrS2″][3Thi][Bta]Q-NH2 (staple 1-4, 4-11) [I-880]	EC50 [1]: 6 nM
	266	[ProSAm3]D[tBuAla][B5(3)]D[TfeGA]AAFL[PyrS2″][3Thi][Bta]Q-NH2 (staple (positions not given here); staple 4-11; not fully specified (bridges)) [I-2266]	
1520		Ac-[αAllylPro]D[tBuAla][B5(5)]NTAAFN[PyrS2″][3Thi]WQ-NH2 (staple 1-4, 4-11; also: separately listed staple isomer composition) [I-1877]	

IC50 [1] [nM]	IC50 [2] [nM]	Binder	also measured
1340		Ac-[αAllylPro]D[tBuAla][B5(5)]NTAAFN[PyrS2″][3Thi]WQ-NH2 (staple 1-4, 4-11; also: separately listed staple isomer composition) [I-1876]	
	267	Ac-[αAllylPro]D[tBuAla][B5(4)]D[TfeGA][Lys(iPr)]AFT[PyrS2″][3Thi][Bta]L-NH2 (staple 1-4, 4-11; also: -CH=CH- in each staple reduced to -CH2-CH2-) [I-1766]	
1210		Ac-[αAllylPro]D[tBuAla][B5]D[TfeGA]AAFN[PyrS2][3Thi][Bta]Y-NH2 (staple 1-4, 4-11; also: earlier-eluting staple isomer composition) [I-952]	EC50 [3]: 1210 nM
606		Ac-[αAllylPro]D[tBuAla][B5]D[TfeGA]AAF[hSer][PyrS2][3Thi][Bta]S-NH2 (staple 1-4, 4-11; also: earlier-eluting staple isomer composition) [I-958]	EC50 [3]: 606 nM
	499	[ProSAm3]D[tBuAla][B5(3)]D[TfeGA]AAFL[PyrS2″][3Thi][Bta]Q-NH2 (staple (positions not given here); staple 4-11; not fully specified (bridges); also: staple double bonds reduced to -CH2-CH2-) [I-2267]	
	34	Ac-[αAllylPro]D[tBuAla][B5(3)]D[Phe(3-COOH)]AAFL[PyrS2″][Phe(3-F)][Bta]A-NH2 (staple 1-4, 4-11) [I-2261]	
458		Ac-[αAllylPro]D[tBuAla][B5(5)]NTAAFN[PyrS2″][3Thi][Bta]V-NH2 (staple 1-4, 4-11; also: separately listed staple isomer composition) [I-1878]	
		Ac-[αAllylPro]D[tBuAla][B5(4)]DDK(Azidoacetyl)AFN[PyrS2″][3Thi][Bta]Q-NH2 (staple 1-4, 4-11) [I-879]	EC50 [1]: 6 nM
1460		Ac-[αAllylPro]D[tBuAla][B5]D[TfeGA]AAFN[PyrS2][3Thi][Bta]Y-NH2 (staple 1-4, 4-11; also: later-eluting staple isomer composition) [I-953]	EC50 [3]: 1460 nM
900		Ac-[αAllylPro]D[tBuAla][B5]D[TfeGA]AAFS[PyrS2][3Thi][Bta]S-NH2 (staple 1-4, 4-11; also: earlier-eluting staple isomer composition) [I-954]	EC50 [3]: 900 nM
1090		Ac-[αAllylPro]D[tBuAla][B5]D[TfeGA]AAFT[PyrS2][3Thi][Bta]S-NH2 (staple 1-4, 4-11; also: earlier-eluting staple isomer composition) [I-956]	EC50 [3]: 1090 nM
	327	Ac-[αAllylPro]D[tBuAla][B5(4)]D[TfeGA][Lys(iPr)]AFL[PyrS2″][3Thi][Bta]F-NH2 (staple 1-4, 4-11; also: -CH=CH- in each staple reduced to -CH2-CH2-) [I-1767]	
884		Ac-[αAllylPro]D[tBuAla][B5(30)]NTAAFR[PyrS2][3Thi][Bta]Q-NH2 (staple 1-4, 4-11; also: later-eluting HPLC isomer) [I-1883]	
	47	Ac-[αAllylPro]D[tBuAla][B5(3)]D[Phe(3-COOH)]AAFL[PyrS2″][Phe(4-F)][Bta]A-NH2 (staple 1-4, 4-11) [I-2263]	
	189	ClAc-[αAllylPro]D[tBuAla][B5(3)]D[Phe(3-COOH)]AAFL[PyrS2″][Phe(2-Cl)][Bta]A-NH2 (staple 1-4, 4-11) [I-2253]	
	72	Ac-[αAllylPro]D[tBuAla][B5(5)]D[Phe(3-COOH)]AAFL[PyrS2″][Phe(2-CF3)][Bta]QL[Ac3c]-NH2 (staple 1-4, 4-11) [I-2389]	
